From patent US12421321B2, “Methods for treating fibrodysplasia ossificans progressiva” (Ashibio, Inc., priority 2023, dated 2025)
Where two headings read alike, the source gives them in different places.

What was measured:
[1] = biological target: T1, pro-MMP-9 (Homo sapiens, UniProt P14780, Q279R/R574P); settings: cited from earlier work
T1 construct: Human MMP-9 protein (without)

[2] = test system: HT1080 cells; settings: cited from earlier work
[3] = in vivo; cited from earlier work
[4] = test system: MDA-MB-435; settings: MDA-MB-435 mouse models; cited from earlier work
[5] = test system: fibrodysplasia ossificans progressiva; settings: in vivo; cited from earlier work
[6] = Pooled safety analysis of double-blind placebo-controlled trials, subcutaneous andecaliximab monotherapy, non-oncologic conditions; assay type: in vivo, human; settings: for Participants with TEAE assessed as related to study drug: double-blind period
Description: A pooled analysis was conducted of all safety data from prior randomized, double-blind, placebo-controlled clinical trials where andecaliximab was administered subcutaneously as a monotherapy in non-oncologic conditions.
The pooled safety analysis consisted of 347 patients enrolled in double-blind (DB) placebo-controlled trials [age 18-78 yrs, median duration of treatment: DB=8 wk; DB+ open label extension (OLE)=17 wk; max 75 wk]. During the DB treatment period, treatment-emergent adverse event (TEAE) assessed as related to study drug occurred in 19 (17.8%) receiving 150 mg Q2W, 23 (20.2%) receiving 150 mg QW, 13 (22.4%) receiving 300 mg QW, none of those receiving 600 mg andecaliximab QW, and 20 participants (22.0%) received a placebo. Treatment-related TEAEs more common with andecaliximab compared with placebo (difference of >1 percentage point) were injection site erythema (2.1% versus 1.1%), headache (1.4% versus 0%), anemia (1.1% versus 0%), and injection site pain (1.1% versus 0%).

[7] = biological target: T2, MMP-9 (Homo sapiens, UniProt P14780); settings: cited from earlier work
Target sequence in this assay (P14780 107-707 limits assumed): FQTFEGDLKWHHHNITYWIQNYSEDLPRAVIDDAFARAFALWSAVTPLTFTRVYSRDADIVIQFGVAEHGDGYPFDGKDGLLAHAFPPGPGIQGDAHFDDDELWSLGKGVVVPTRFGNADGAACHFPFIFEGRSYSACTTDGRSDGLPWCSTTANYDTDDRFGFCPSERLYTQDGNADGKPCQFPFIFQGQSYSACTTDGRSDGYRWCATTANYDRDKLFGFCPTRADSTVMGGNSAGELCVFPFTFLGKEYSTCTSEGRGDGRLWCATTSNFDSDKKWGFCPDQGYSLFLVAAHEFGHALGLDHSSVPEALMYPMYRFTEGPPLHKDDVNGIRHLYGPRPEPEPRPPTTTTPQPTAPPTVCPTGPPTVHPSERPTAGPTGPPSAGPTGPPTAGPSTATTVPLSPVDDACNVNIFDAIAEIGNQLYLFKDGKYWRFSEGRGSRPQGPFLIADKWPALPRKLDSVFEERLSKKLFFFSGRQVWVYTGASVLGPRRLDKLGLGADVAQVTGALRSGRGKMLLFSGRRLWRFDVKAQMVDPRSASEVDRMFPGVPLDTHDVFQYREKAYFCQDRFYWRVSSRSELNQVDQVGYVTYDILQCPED

[8] = biological target: T1, pro-MMP-9; settings: cited from earlier work; remark: listed apart in the source
[9] = biological target: T1, pro-MMP-9; settings: read-out: IC50, activation of MMP-9 from human pro-MMP-9; cited from earlier work
[10] = human, in vivo; cited from earlier work
[11] = biological target: T2, MMP-9; settings: read-out: Ki against MMP-9, cited from earlier work
Target sequence in this assay (P14780 94-707): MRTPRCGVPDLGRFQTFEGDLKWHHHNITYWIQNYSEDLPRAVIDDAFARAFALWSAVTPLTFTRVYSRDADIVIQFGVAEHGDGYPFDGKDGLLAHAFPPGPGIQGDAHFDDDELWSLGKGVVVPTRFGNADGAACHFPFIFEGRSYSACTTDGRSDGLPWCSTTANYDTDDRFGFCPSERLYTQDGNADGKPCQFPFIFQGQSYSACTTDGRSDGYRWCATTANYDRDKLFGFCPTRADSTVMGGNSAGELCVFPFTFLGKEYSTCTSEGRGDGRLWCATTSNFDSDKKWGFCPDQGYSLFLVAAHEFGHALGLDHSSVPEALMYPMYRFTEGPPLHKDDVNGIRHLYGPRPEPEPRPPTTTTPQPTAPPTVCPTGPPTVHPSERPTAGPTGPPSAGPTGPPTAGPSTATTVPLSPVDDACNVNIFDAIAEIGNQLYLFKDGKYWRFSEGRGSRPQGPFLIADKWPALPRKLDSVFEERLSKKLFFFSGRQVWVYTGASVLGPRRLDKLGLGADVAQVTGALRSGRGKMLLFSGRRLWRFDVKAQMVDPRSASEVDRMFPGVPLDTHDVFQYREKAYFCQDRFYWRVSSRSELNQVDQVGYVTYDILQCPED

[12] = test system: mouse model of multiple sclerosis; settings: cited from earlier work
[13] = test system: heterotopic ossification; assay: Inducible FOP mouse model (Acvr1 R206H, tamoxifen plus cardiotoxin), HO volume by micro-CT; assay type: in vivo, mice; settings: 30 mg/kg loading, then 15 mg/kg IP; micro CT 14-24 days post-injury
Description: FIG. 1 is a plot showing heterotopic ossification (HO) in an inducible mouse model of FOP having the R206H mutation (Acvr1[R206H]FIEx/+, Gt(ROSA26)SorCreERT2/+) treated with a control vehicle or AB0046 antibody (murine surrogate of andecaliximab that recapitulates MMP-9 inhibitory activity). The induction of disease occurred via tamoxifen (75 mg/kg×7 days, IP) and cardiotoxin injection on day 0 (10 μM, 100 μL) in the right gastrocnemius muscle. Dosing occurred at 30 mg/kg three days prior to injury (loading dose to address initial target-mediated drug disposition), then 15 mg/kg on days 0 and 3, or 15 mg/kg continuing twice per week after day […]. Ex vivo quantification of HO at the injury site was assessed using high-resolution micro CT and analyzed using 3D morphometry.
As described in Hatsell et al (Science Translational Medicine 2015), a knock-in transgenic model (Acvr1[R206H]FIEx/+; Gt(ROSA26)SorCreERT2/+) is used for these studies. […]
Faxitron images (medio-lateral view) of the collected entire right and left hindlimbs from all animals were performed (ex vivo) to document the presence of ectopic bone. Images were assessed qualitatively.
The effect of the anti-MMP-9 antibody, AB0046, on bone formation in the mouse model was evaluated ex vivo at the end of the in-life period. […]

[14] = test system: colorectal carcinoma xenograft; settings: surgical orthotopic xenograft model of colorectal carcinoma; cited from earlier work
[15] = pooled andecaliximab (placebo 0%)

T1 sequence (P14780 20-707 Q279R/R574P): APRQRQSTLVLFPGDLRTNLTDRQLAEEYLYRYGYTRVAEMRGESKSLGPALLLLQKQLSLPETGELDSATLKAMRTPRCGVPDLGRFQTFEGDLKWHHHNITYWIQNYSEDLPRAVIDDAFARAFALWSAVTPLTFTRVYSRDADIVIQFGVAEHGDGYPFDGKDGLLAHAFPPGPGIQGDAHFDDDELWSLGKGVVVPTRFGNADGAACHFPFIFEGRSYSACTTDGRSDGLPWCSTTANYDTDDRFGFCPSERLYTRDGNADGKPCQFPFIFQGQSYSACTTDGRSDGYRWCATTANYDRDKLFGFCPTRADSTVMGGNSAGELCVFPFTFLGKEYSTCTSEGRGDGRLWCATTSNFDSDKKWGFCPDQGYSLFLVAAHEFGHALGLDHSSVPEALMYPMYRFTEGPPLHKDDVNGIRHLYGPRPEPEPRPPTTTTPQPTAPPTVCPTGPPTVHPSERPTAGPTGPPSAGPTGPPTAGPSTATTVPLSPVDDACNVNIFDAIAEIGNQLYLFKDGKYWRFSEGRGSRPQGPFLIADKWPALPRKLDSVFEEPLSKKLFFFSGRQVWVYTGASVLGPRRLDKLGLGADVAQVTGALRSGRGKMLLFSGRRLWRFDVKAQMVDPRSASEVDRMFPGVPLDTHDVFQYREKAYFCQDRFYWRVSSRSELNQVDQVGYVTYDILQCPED

COc1ccccc1Nc1nc(-c2sc(NC(C)=O)nc2C)cs1 [JNJ0966, N-(2-((2-methoxyphenyl)amino)-4′-methyl-[4,5′-bithiazol]-2′yl) acetamide]
Activation of pro-MMP-9 [1]: prevents the activation of pro-MMP-9 | Migration of HT1080 cells [2]: inhibits the migration of HT1080 cells | Blood-brain barrier penetration [3]: penetrates the blood-brain barrier

CCCc1cc(=O)nc(SCC(=O)Nc2ccc(OC(F)F)cc2)[nH]1 [N-[4-(difluoromethoxy)phenyl]-2-[(4-oxo-6-propyl-1H-pyrimidin-2-yl)sulfanyl]-acetamide]
Tumor growth and metastasis [4]: reduced tumor growth and metastasis

CC1(C)CCC(C)(C)c2cc(Cn3cccn3)c(/C=C/c3ccc(C(=O)O)cc3)cc21 [Palovarotene, palovarotene]
Effect in mouse model of fibrodysplasia ossificans progressiva [5]: shown promise

andecaliximab: anti-MMP-9 recombinant chimeric, humanized antibody; heavy chain SEQ ID NO: 35, light chain SEQ ID NO: 36
Participants with TEAE assessed as related to study drug ([6]; 150 mg Q2W): 17.8% | Participants with TEAE assessed as related to study drug ([6]; 150 mg QW): 20.2% | Participants with TEAE assessed as related to study drug ([6]; 300 mg QW): 22.4% | Participants with TEAE assessed as related to study drug ([6]; 600 mg QW): none | Treatment-related TEAE: anemia [6, 15]: 1.1% | Treatment-related TEAE: headache [6, 15]: 1.4% | Treatment-related TEAE: injection site pain [6, 15]: 1.1% | Treatment-related TEAE: injection site erythema ([6]; pooled andecaliximab (placebo 1.1%)): 2.1% | Kd [7]: 2 to 6.6 nM | Kd [8]: 0.008 to 0.043 nM | IC50 [9]: 0.0082 nM | Safety and tolerability in clinical trials [10]: safe and well-tolerated

α1(V)GlyΨ{PO2H—CH2} Val [mep14, 32,Flp15, 33] THPI
Ki ([11]; 25° Celsius): 90.6 nM | Ki ([11]; 37° Celsius): 0.98 nM | Clinical severity and weight loss [12]: effectively reduced clinical severity and weight loss

B1: AB0046: murine surrogate of andecaliximab that recapitulates MMP-9 inhibitory activity; SEQ ID NO: 33 and 32 (antibody)
heavy: MGWSSIILFLVATATGVHSQVQLQQPGSVLVRPGASVKLSCTASGYTFTSYWMNWVKQRPGQGLEWIGEIYPISGRTNYNEKFKVKATLTVDTSSSTAYMDLNSLTSEDSAVYYCARSRANWDDYWGQGTTLTVSSAKTTPPSVYPLAPGSAAQTNSMVTLGCLVKGYFPEPVTVTWNSGSLSSGVHTFPAVLQSDLYTLSSSVTVPSSTWPSETVTCNVAHPASSTKVDKKIVPRDCGCKPCICTVPEVSSVFIFPPKPKDVLTITLTPKVTCVVVDISKDDPEVQFSWFVDDVEVHTAQTQPREEQFNSTFRSVSELPIMHQDWLNGKEFKCRVNSAAFPAPIEKTISKTKGRPKAPQVYTIPPPKEQMAKDKVSLTCMITDFFPEDITVEWQWNGQPAENYKNTQPIMDTDGSYFVYSKLNVQKSNWEAGNTFTCSVLHEGLHNHHTEKSLSHSPGK
light: MSSAQFLGLLLLCFQGTRCDIQMTQTTSSLSASLGDRVTISCSASQGISNYLNWYQQKPDGTFKLLIYYTSILHSGVPSRFSGSGSGTDYSLTISNLEPEDIATYYCQQYGWLPRTFGGGTKLEIKRADAAPTVSIFPPSSEQLTSGGASVVCFLNNFYPKDINVKWKIDGSERQNGVLNSWTDQDSKDSTYSMSSTLTLTKDEYERHNSYTCEATHKTSTSPIVKSFNRNEC
Heterotopic ossification (HO) at the injury site versus IgG control [13]: reduced HO in mice | Tumor growth and metastasis [14]: reduced tumor growth and metastasis
